Experimental data reported in the nanobody polyreactivity screen of Harvey et al. (2022).

Assay: yeast display, Sf9 membrane polyspecificity reagent, FACS + sequencing; frameworks hold sequencing errors
Method in brief: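 Genes from sorted yeast were amplified by colony PCR, read by MiSeq 2 × 250 sequencing and filtered on CDR length. These cells carried a synthetic nanobody library in Saccharomyces cerevisiae BJ5465 and were sorted by FACS into low and high (top ~1%) gates on anti-HA and streptavidin fluorescence. Polyreactivity is labelled according to the gate of origin.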

Sequence	polyreactivity (PSR sort gate)
QVQLVESGGGLVQAGGSLRLSCAASGFTFQYYAMGWYRQAPGKERELVAAISWSGTSPYYADSVKGRFTISRDNAKNTVYLQMISLKPADTAVYDCAASVWYYYSDYDYWGQGTQVTVSS	high polyreactivity
QVQLVESGGGLVQAGGSLRLSCAASGRIFYYYAMLWYRQAPGKERELVAAIRRGGSTNYADSVKGRFTISRDNAKNTVYLQMNSLKPEETAVYYCAARSARLEYYYWGQGTQVTVSS	high polyreactivity
QVQLVESGGGLVQAGGSLRLSCAASGRTFRDYVMGWYRQAPGKERELVAVISYRGSTYYADSVKGRFTISRDNAKNTVYLQMNSVKPEDTAVYYCAGRFSLEGGYYWGQGTQVTVSS	low polyreactivity
QVQLVESGGGLVQAGGSLRLSCAASGSNIYTYAMGWYRHAPGKERELVAAISSGGSTTYADSVKGRFTISRDNAKNTVYLEMISLKPEDTAVYYCAADGASRALYDYWGQGTQVTVSS	high polyreactivity
QVQLVESGGGLVQAGGSRRLSCAASGRVFFNNAMGWYRQAPGKDREWVAGITSGSSTNYADSVKGRFTISRDNAKNTVYLQMNSLKPEYTAVDYCNKAPSWWDVRVPFDYWGQGTQVTVSS	low polyreactivity
QVQLVESGGGLVQAGGSLRLSCAASGSTFSQYAMGWYRQAPGKERELVAAITTSDGSTNYADSVKGRFTISRDNAKNTVYLQMNSLKPEDTAVYYCNTEYFYYSFGYWGQGTQVTVSS	low polyreactivity
QVQLVESGGGLVQAGGSLRLSCAASGFTFYSYAMGWYRQAPGKERELVATISSGGRTYYADSVKGRFTISRDNAKNTVYLQMNSLKPEDTAVYYCAARWRPHPFAPPGYYSWGQGTQVTVSS	high polyreactivity
QVQLVESGGGLVQAGGSLRLSCAASGRIFYVYAMGWYRQAPGKERELVAAINWRGGSTYYADSVKGRFPISRDNAKNTVYLQMNSLKPEDTAVYYCAARWYLYDYWGQGTQVTVSS	low polyreactivity
QVQLVASGGGLVQAGGSVRLSCAASGFIVNYYAMGWYRQAPGKEGELLAAISSGGSTYYADSVKGRFTISRDNAKNTVYLQMNSLKPEDTAVYYCAARYTDLRLARYYYDYYYWGQGTQVTVSS	high polyreactivity
QVQLVESGGGLVQAGRSLRLICAASGRILGGNTMGWYRQAPGKERELVAGISYSGGRTYYADSVQRRFTISRDNAKHTFYLQMNSLKPEDTAVYYCNVPLGRGRKIAYGYWGQGTQVTVSS	high polyreactivity
QVHHVESGGGVVQAGGSLRLSCAASGRITYVNAMGWYRQPPGKESELVATITGSGDSKHYADSVKGRFTISRDNAMNTVYLQMNSLKPEVTAVYYGAADVYRYWQIYEYWGQGTQVTVSS	low polyreactivity
QVQLVESCGDLVQAGASLRLSCAASGRIFVYYAMGWYRQAPGKERELVALITSLGSTNYSDSVKGRFTISRDNGKNCVYLQMNSLKPEDTAVYYCAAEWEYYGFDYWGQGTQVTVSS	low polyreactivity
QVQLVESCGGLVQAGGSLRISCAASGLTIRYYAMGWYRHAPWKERELVAAISWSGGSTYYADSVKGRFTISRDNAKNTVYLLMNILKPEDTAVYYCNTVGRSSSLSVFLIGYGYWGQGTQVNVSS	high polyreactivity
QVQLVESGGGLVQAGGSLRLSCAASGRTFSGYAMGWYRQATGKERELVAAITRRGGTTYYADSVKGRFTISRDNAKNTVYLQMNSLKPEDTAVYYCAAAKPRVISQNIIYDYWGQGTQVTVSS	high polyreactivity
QVQLVESGGGLVQAGGSLRLSCAASGFIFSSYAMGWYRQAPGKERELVAAISRSGGRTNYADSVKGRFTISRDNAKNTVYLQMNSLKPEDTAVYYCNADRKYWSLWGPAYDYWGHGTQVTVSS	high polyreactivity
QVQLVESGGGLDQAGGSLRLSCAASGRISGYYDMVWYRQAPGKERELVATITSDGGTNYADSVKGRFTISRDNAKNTVYLQMNSLKPEDTAVYDCAAYGWYTKWHFAYGYWGQGTQVTVSS	low polyreactivity
QVQLVESGGGLVQAGGSLRLSCAASGSTFKVNAMGWYRQAPGKERELVAAISRGGSTYADSVKGRFTISRDNAKNTVYLQMNSLKPEDTAVYYCAAKSRYFQPDEYYYWGQVTQVTVSS	high polyreactivity
QVQLVESGGGLVQAGGSLRLSCAASGRTFRRNAMGWYRQAPGKERELVAAIRWSSGSTYYADSVKRRFTISRDNAKNTVYLQMNSLKPEDTAVYYCAKRQWGGRESFDYWAQGTQVTVSS	low polyreactivity
QVQLVESGGGLVQAGGSLRLSCAASGRIFAFYAMGWYRPAPGKEREFVAAITYSGGNTNYADSVKGRFTISRDNAKNTVYIEMNSLKPEDTPVYYCAADLVYGVYYQEDYWGQGTQVTVSS	low polyreactivity
QVQLVESGGGLVQAGGSLRLSCAASGIIFGDNAMGWYRQAPVTERELVAAIDSGGSTYYADSVKGRFTISRDNAKNTVYLQMISLKPEDTAVYYCNAVTAFGYSYAGWDYDQYNYWGQGTEVTVSS	low polyreactivity
QVQLVESGGGLVQAGGSLRLSCADSGSIFAYYARGWYRQAPGKERELVAAISQSGGSTYYAYSVKGRFTISRDTAKNTVYLQMNSLKPEDTAVYYCAARFRYGYTGYRYDYWGQGTQVTVSS	high polyreactivity
QVQLEESAGGLVQAGGSLRLICADSARILRQYARGWYRQAPGKERELVAAITSSGGSTYYADSVKGRFTISRDNEKNTVYLQMNSMKPEDTAVYYCNARLRGAKYDYWGQGTQVSVSS	high polyreactivity

Sequence	polyreactivity (PSR sort gate)
QVQLVESGGGLVQAGGSLRLRCASSGITFTLNAMGWYRQAPGKERELVAAISGSGGRTYYADSVKGRFTISRDNAKNTVYLQMNSLKPEDTAVYYCAAAVLDRYTRYIWYIYDYWGQGTQVTVSS	high polyreactivity
QVQLVESGGGLVQAGGSLRLSCAASGSIFVLYAMGLYRQAPGTERELVAAITTGGGTNYADSVKGRFTISRDNAKNTVYLQINSLKPEDTAVYYCAADTGWYDDWTHDYWGQGTQVTVSS	low polyreactivity
QVQLVESGGGLVQAGGSLRLSCAASGFIFDYYAMGWYRPAPAKERELVAAISCRGGTTYYADSVKGRFTISRDNAKNTVYLQMNSLKPEDTAVYYCAAGRFYGFGYGYWGQGTQVTVSS	high polyreactivity
QVQLVESGGGLVQAGGSLRLSCAASGFILKYYAMGWYRQAHGKERELVAAITVSGGSTYYADSVKGRFTISRDNAKNTFYLQMNSLKPEDTAVYYCNADYPRGGAGLLDYWGQGTQVTVSS	low polyreactivity
QVQLVESGGGLGQAGGSLRLSCAASGSIFDWYAMGWYRKAPGKEGELVAAISSGDSTYYADSVKGRFTISRDNAKNTFYLQMNSLKPEDTAVYYCAAVTKLSGIRYNYWGQGTQVTVSS	low polyreactivity
QVQLVESGGGLVQAGGSLRLSCAASGSTIHDYAMGWYRQAPGKEREFVAAISNSGGSTYYADSLKGRFTISRDNAKNTVYLQMNSLKPEDTAVYYCAADGRWYWDYEYWGQGTQVTVSS	low polyreactivity
QDQLVESRGGLVQAGGSLRLSCAASGSISVKYAMGWYRQAPGKERELVAAISSDGNTYYADSVKGRFTISRDNAKYNVYLQMNSLKPEDTAVYYCAPAKVSWFGLKYYYWGQGTQVTVSS	high polyreactivity
QVQLVESGGGLVQAGGSLRLSCAASGSTFSRYTMGWYRQAPGKERELVAAISKSGGSTYYADSVKGRFTISRDNAKNTVYLQMNSLKPEDTAVYYCAALVRAGTSLDYDYWGQGTQVTVSS	high polyreactivity
QVQLVESGGGLVQAGGSLRLSCAASGFIFFGEYVMGWYRQAPGKEREFVAAITDSDGSTYYADSVKGRFTISRDNAKNTVYLQMTSLKPEDTAVYYCAAERVCSDMDYWGQGTQVTVSS	low polyreactivity
QVQLVESVGGLVQAGGSLRLSCAASGLIFASYAMGWYRQAPGKERELVAAISWSGGSTYYADSVKGRFTISRDYAKITVYLQMNSLKPEDTAVYYCAAIRYAYGSLDYWGQGTQVTVSS	high polyreactivity
QVQLVESGGGLVQAGGSLRLSCAASGFTFPSYAMGWYRQAPGKERELVAAISQRGGSTYYADSVKGRFTISRDNAKNTVYLQMNSLKPEDTAVYYCAALAPRTGRPTYGYWGQGTQVTVSS	low polyreactivity
QVQLVESGRGLVQAGGSLRLSCAASGRIFLANAMGWSRQAPGKERELVAAISLSGGRTYYADSVKGRFTISRDIAKNTVYLQMNSLKPEDTAFYYCAAEFYPIGYYGGYDYWGPGTQVTVSS	low polyreactivity
QVQLVESGGGLVQAGGSLRLSCAASGRTFGGNTMGWYREAPGKERELVAAISRRGGSTYYADSVKGRFTISRDNAKNTVYLQMNSLKPEDTAVYYCNKDGPSYSSYDYWGQGTQVTVSS	low polyreactivity
QVQLVESGGGLVQAGGSLRLSCAASGRIFEVYVMGWYRQAPGKERELVAAITTSGGSTYYADSVKGRFTISRDNAKNTVYLQMNSLKPEDTAVYYCNRYWHLAGSWGQGTQVTVSS	low polyreactivity
QVQLVESGGGLVQAGGSLRLSCAASGRTFFGYAMGWYRQAPGKERELVAAITTSGGSTYYADSVKGRFTISRDNAKNTVYLQMNSLKPEDTAVYYCAADSTNYWLGFYYWGQGTQVTVSS	low polyreactivity
QVQLVESGGGLVQAGGSLRLSCAASGSILEYYAMGWYRQAPGKERELVAGISSAGNTYYADSVKGRFTISRDNAKNTVYLQMNSLKPEDSAVYYCAAVPWSGEYDYWGQATQVTVSS	low polyreactivity
QVQLVESGGGLVQAGGSLRLSCAASGRTFEYYAMGWYRQAPGKERELVASITSSGVRTYYADSVKGRFTISRDNAKNTVYLQMNSLKPEDTAVYYCAKRLVYSRWGDYWGQGTQVTVSS	high polyreactivity
QVQLVESGGGLVQAGGSLRLSCAASGRIFKSYVMGWYRQAPGKERELVAAISITGGSTYYADSVKGRFTISRDNAKNTVYLQMNSLKPEDTAVYYCAAEWFGSVQPAYDYWGQGTQVTVSS	high polyreactivity
QVQLVESGGGLVQAGGSLRLSCAASGLTFYVYAMGWYRQAPGKERELVAAISSGGRTYYADSVKGRFTISRDNAKNTVYLQMNSLKPEDTAVYYCAARSPVWRTTEDYWGQGTQVTVSS	high polyreactivity
QVQHVESGGGLVQAGGSLRLSCAASGSTFDDNTMGWYRQATGKERELVAAITRSGGSTYYADSVKGRFTISRDNAKNTVYLQMNSLKPEDTAVYYCATYPYSPYYYVYVEPYDYWGQGTQVTVSS	low polyreactivity
QVQLVESGGGLVQAGGSLGLSCAASGIIFGKYAMGWYRQAPGKERELVASITVDGGTTYYADSVKGLFTISRDNANNTVYLQMNSLKPEDTAVYYCATGVFAELWFDYWPYDYWGQGTQVTVSS	high polyreactivity
